Reference: patent US6753157B2, “Quantitation of individual protein kinase activity” (Promega Corporation, priority 1994, dated 2004)
Blank lines part the entries; values can stand above or below the substance they belong to. Ends that are not written are not given here. * marks the point of attachment. biotin C6 = biotin C6 moiety, O=C(CCCC[C@@H]1SC[C@@H]2NC(=O)N[C@@H]21)NCCCCCC(=O)*

Tests used:
[1] = tested on: Ca2+ and phospholipid dependent protein kinase (PKC); assay: Protein kinase activity of Ca2+ and phospholipid dependent protein kinase with biotinylated neurogranin(28-43), streptavidin-linked disk, 32P; format: biochemical
Method: The protein kinase activity of Ca^2+ and phospholipid dependent protein kinase activity (PKC) was determined in a similar manner to that of PKA described above, except that the biotinylated peptide substrate was a derivative of neurogranin; namely, biotinylated neurogranin(28-43) Chen, S-J, et al., 1993.
The peptide was modified by the addition of biotin containing moiety: *-Ala-Ala-Lys-Ile-Gln-Ala-Ser-Phe-Arg-Gly-His-Met-Ala-Arg-Lys-Lys (Promega Peptide B, SEQ. ID. 2, Mol.Wt. is 2139.6), and was used at a concentration of 100 μM. The enzyme (#V5261, Promega Corporation) was diluted 5× in 100 μg/ml of BSA.
The kinase activity of the […] was determined in a reaction volume of 50 μL consisting of 40 mM Tris. HCl, pH 7.4, 10 mM MgCl2, BSA at 100 μg/ml, and 100 μM of τ-^32P-ATP (sp.act. of 100 cpm/pmol). The activity was determined in the presence and absence of 100 μg/ml of phosphatidylserine, 10 μg/ml of diacylglycerol and 0.4 mM calcium chloride. Reaction was started with the addition of 5 μL of the enzyme and incubated at 25° C. After specified periods of time, reactions were terminated by the addition of 10 μL of terminating solution (see above). Twenty-five μL aliquots were aliquoted on disks and the disks were processed as described above for PKA.

[2] = target: T1, cAMP-dependent protein kinase (PKA) (Bos taurus, UniProt P00517); assay: Kinase activity of cAMP-dependent protein kinase with biotinylated peptide substrate, streptavidin-linked disk, 32P; format: biochemical; settings: PKA 2 Kemptide units per reaction, 100 μM ATP, 37° C., FIG. 3
T1 construct: V5161 (general description)
Method: The kinase activity of cAMP-dependent protein kinase (PKA) was carried out in duplicates at each of the various peptide substrate concentrations, in a reaction volume (50 μL) containing 40 mM Tris HCl, pH 7.4, 20 mM MgCl2, 100 μM τ-^32P-ATP (sp.act.of 100-200 cpm/pmol), 100 μg/ml of bovine serum albumin (BSA), and the appropriate biotinylated peptide substrate: *-Leu-Arg-Arg-Ala-Ser-Leu-Gly (Promega Peptide A, SEQ. ID. 1, M.Wt of 998.4).
The reaction was started by addition of the appropriate amount of enzyme (Promega #V5221) to give 2 Kemptide units and incubated for 0, 5, and 10 minutes at 37° C. (one Kemptide unit is defined as the amount of enzyme required to catalyze the incorporation of 1 pmol of phosphate into Kemptide substrate in 1 minute). At specified periods of time at the appropriate temperature, the reaction was terminated with the addition of 10 μL of terminating solution as described above.
Twenty-five μL aliquots were withdrawn and spotted in a 12.5 mm (i.d.) streptavidin-linked disk (0.5 mg of streptavidin/disk) and placed in 2M NaCl-containing beaker. After one minute of gently swirling the beaker at room temperature, fresh NaCl was added. This washing procedure was repeated 5 more times at one minute each. […]
Enzyme activity was calculated by determining the radioactivity via liquid scintillation spectrometry. […]

[3] = tested on: T2, biotinylated neurogranin(28-43) (Promega Peptide B, *-Ala-Ala-Lys-Ile-Gln-Ala-Ser-Phe-Arg-Gly-His-Met-Ala-Arg-Lys-Lys)
T2 sequence: AAKIQASFRGHMARKK

[4] = tested on: T3, biotinylated Promega Peptide A (*-Leu-Arg-Arg-Ala-Ser-Leu-Gly)
T3 sequence: LRRASLG

substrate concentration at which enzyme activity reached a maximum ([1]; PKC, 25° C., FIG. 7): around 100 μM
PKC activity relative to activity assayed with the phosphocellulose paper method ([1]; biotinylated substrate/streptavidin matrix versus unmodified peptide/phosphocellulose paper): 6-7 fold
Substance: *-Ala-Ala-Lys-Ile-Gln-Ala-Ser-Phe-Arg-Gly-His-Met-Ala-Arg-Lys-Lys ({biotin C6}-AAKIQASFRGHMARKK) [Promega Peptide B, N-terminal Biotin C6 neurogranin-derived peptide substrate for PKC]

Km [2]: 33 µM
Vmax value [2]: 1.45 pmol/min
Substance: *-Leu-Arg-Arg-Ala-Ser-Leu-Gly ({biotin C6}-LRRASLG) [Promega Peptide A, N-terminal Biotin C6 peptide substrate for PKA]

Substance: Ca2+ and phospholipid dependent protein kinase (PKC) (#V5261, Promega Corporation)
substrate concentration at which kinase activity reached a maximum [3]: the activity of the enzyme reached a maximum around 100 µM of modified substrate

Substance: cAMP-dependent protein kinase (PKA), purified enzyme (Promega #V5221)
Km (kinase activity, 32P incorporation into biotinylated peptide captured on streptavidin disks) [4]: a Km Value for the substrate of 33 µM
